Consider 3 substances from publication PMC4211736.

“And” between values parts separate entries of the source, which are not always exact repeats. Identical values can stand only once.

One experiment deals with G29K/A30K(3xK)-APP695wt. As to the kind of experiment: SDS-PAGE and Western blot (SDS-stable dimer); CHO cells lysed in RIPA buffer (0.1% SDS); 3-8% Tris-Acetate gel; blot probed with anti-APP C-terminal antibody A8717. On the technique in general: A western blot detects proteins with antibodies after separation by electrophoresis.
Another experiment has as its target recombinant 3xK-C100Flag. Kind of experiment: SDS-PAGE, Coomassie stain and Western blot (SDS-stable multimers); recombinant protein run on 4-12% Bis-Tris gels; monomer, dimer and trimer bands cut out, eluted in 150 mM sodium citrate pH 6.8 and rerun; Coomassie stain and blot (6E10, Ab5).
For another experiment, the target named is recombinant WT-C100Flag. Described as above.

recombinant WT-C100Flag, sequence (P05067 18-701): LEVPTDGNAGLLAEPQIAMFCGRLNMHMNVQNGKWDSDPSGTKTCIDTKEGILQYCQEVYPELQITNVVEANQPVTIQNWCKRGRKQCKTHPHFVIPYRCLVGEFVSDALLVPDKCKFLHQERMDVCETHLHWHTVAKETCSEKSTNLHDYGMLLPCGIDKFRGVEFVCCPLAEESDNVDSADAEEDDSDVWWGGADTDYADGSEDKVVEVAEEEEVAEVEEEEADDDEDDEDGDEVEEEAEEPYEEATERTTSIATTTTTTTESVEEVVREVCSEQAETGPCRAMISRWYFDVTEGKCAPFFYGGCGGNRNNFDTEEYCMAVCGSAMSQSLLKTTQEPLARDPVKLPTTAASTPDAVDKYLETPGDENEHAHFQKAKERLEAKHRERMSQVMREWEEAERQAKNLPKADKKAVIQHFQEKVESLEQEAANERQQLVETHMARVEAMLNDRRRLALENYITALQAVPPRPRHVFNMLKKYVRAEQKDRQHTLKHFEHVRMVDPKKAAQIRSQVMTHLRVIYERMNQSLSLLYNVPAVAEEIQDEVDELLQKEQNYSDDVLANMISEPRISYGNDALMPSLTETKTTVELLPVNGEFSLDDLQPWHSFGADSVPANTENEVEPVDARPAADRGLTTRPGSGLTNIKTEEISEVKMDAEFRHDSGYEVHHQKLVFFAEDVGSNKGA

As usually defined, the stoichiometry N is the number of molecules, sites or subunits per partner or assembly. On to “G29K/A30K(3xK)-APP695wt (natural protein)”, for which the stoichiometry N in the experiment with G29K/A30K(3xK)-APP695wt worked out at 2.

In the case of “recombinant 3xK-C100Flag (domain or fragment)”, the stoichiometry N in the experiment with recombinant 3xK-C100Flag was 2 and 3. With “recombinant WT-C100Flag (domain or fragment)”, the stoichiometry N with recombinant WT-C100Flag was 2 and 3.
